Key:
[1] = target: T1, immobilized human serum albumin (Homo sapiens, UniProt P02768); test: Albumin binding: affinity chromatography on columns with immobilized human serum albumin (net retention time); details: isolated binders; HSA column 25° C., PBS pH 7.4/isopropanol gradient
T1 construct: purchased Chiralpak (Chiraltech) 34712
Experimental: In order to identify suitable binder molecules, which when bound to a peptide, such as an insulin, are able to improve the half-life in plasma and to prolong the profile of action, a system was established based on affinity chromatography with serum albumin columns, i.e. columns with immobilized serum albumin.
The net retention time of the binders (samples) was calculated according to the following formula: Net retention time=RetTimeSample−RetTimet0 marker
• Instrument: Waters Alliance 2795/Waters PDA 2996 or Waters H-Class UPLC equipped with a Waters Acquity photodiode-array detector • Software: Waters Empower 3 • Column: […]® HSA 50×4 mm; 5 μm Particle size • Chiraltech Order Numbers: HSA: 34712 • Eluent A: Phosphate Buffer saline (PBS) at pH=7.4 • Gibco PBS pH7.4 (10×) Phosphate Buffered Saline 500 ml; • Order Number: 70011-036 (500 ml) • Eluent B: Isopropanol • Fisher Order Number: A461-1 (10 • Gradient:
• Column temperature: 25° C. • Flow rate: 1.0 ml/min • Detection: λ=220 nm • Injection volume: 20 μL • Sample Conc.: 1 mg/ml insulin solution in PBS for insulin samples • 5 μL of 10 mM DMSO stock solution (DMSO evaporated and re-dissolved in 200 μL i-propanol/water 1:1 v/v) for isolated binder samples (250 μM, 0.2 mg/ml at 800 Da MolWeight) • t0 marker Sodium Nitrate (NaNO3) solution in water, 0.05 mg/ml • Diluted from aqueous 1 mg/ml stock solution (Fluka Order Number: 74246-100ML) • Reported Value Net retention time of sample: RetTime Sample−RetTime t0 marker
Affinity chromatography was carried out i) for insulin conjugates according to Examples 3.3 and 3.4 on a Waters Alliance Separation Module 2695 equipped with a Waters photodiode-array detector 2996 or Waters H-Class UPLC equipped with a Waters Acquity photodiode-array detector and ii) for isolated binders according to Example 2.11 on a Waters Alliance Separation Module 2795 equipped with a Waters photodiode-array detector 2996 or Waters H-Class UPLC equipped with a Waters Acquity photodiode-array detector.
Columns with immobilized human serum albumin (50×4 mm; 5 μm particle size) were purchased from Chiralpak and used for separations.
The columns with immobilized serum albumin were kept at 25° C. during the LC run, UV detection was carried out at 220 nm and injection volume was 20 μL.
The net retention time of the samples was reported according to Net retention time=RetTime Sample−RetTime t0 marker

[2] = target: T2, simulated gastric fluid (pepsin) (Sus scrofa, UniProt P00791); test: In vitro stability in simulated gastric fluid (Example 9); assay type: in vitro ADME, porcine; details: 37° C., 2 μM
T2 construct: from tissue; host or cells: porcine stomach mucosa
T2 sequence (P00791 60-385): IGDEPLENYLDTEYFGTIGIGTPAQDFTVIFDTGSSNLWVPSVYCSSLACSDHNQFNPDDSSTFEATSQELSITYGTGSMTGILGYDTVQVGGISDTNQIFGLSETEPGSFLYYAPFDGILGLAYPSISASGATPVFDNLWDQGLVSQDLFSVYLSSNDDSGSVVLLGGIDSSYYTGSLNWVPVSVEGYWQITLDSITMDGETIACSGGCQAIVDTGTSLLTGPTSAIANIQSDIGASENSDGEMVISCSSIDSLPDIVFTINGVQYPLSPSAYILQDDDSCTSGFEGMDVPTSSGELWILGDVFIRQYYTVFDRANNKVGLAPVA
Experimental: Two grams of sodium chloride and 3.2 g of purified pepsin (from porcine stomach mucosa, with an activity of 800 to 2500 units per mg of protein) were dissolved in 7.0 ml of hydrochloric acid. The volume was adjusted with water up to 1000 ml.
(§1) The stability determination was done using appropriate time points (for SIF and SGF 15, 30, 60, 120 and 240 minutes; for proteases 15, 30, 60 and 120 minutes). The incubation was done at 37° C. and the % of remaining parent compound was calculated in reference to a TO time point.
(§2) For the determination of the parent compound an appropriate bioanalytical LC-MS/MS or LC-HRMS method was used, using the supernatant, after protein precipitation with ethanol (1 eq. v/v) and a centrifugation step.
(§3) Compounds were dissolved in diluted hydrochloric acid at a final concentration of 40 μM. The compound concentration in the assay was 2 μM. A 1:20 dilution of the working solution was done into the protease buffer and samples are then incubated at 37° C., under stirring. At the appropriate time point and aliquot was taken, the reaction was quenched ethanol (1 eq. v/v), than centrifuged. The supernatant was analyzed.

α-Chymotrypsin = α-Chymotrypsin (Bos taurus, UniProt P00766); test: In vitro proteolytic stability against α-chymotrypsin (Example 9); assay type: in vitro ADME; details: 37° C., 2 μM
Experimental: as §1, §2, §3

Cathepsin D = Cathepsin D (Homo sapiens, UniProt P07339); test: In vitro proteolytic stability against cathepsin D (Example 9); assay type: in vitro ADME; details: 37° C., 2 μM
Cathepsin D, sequence (P07339 65-412, species assumed): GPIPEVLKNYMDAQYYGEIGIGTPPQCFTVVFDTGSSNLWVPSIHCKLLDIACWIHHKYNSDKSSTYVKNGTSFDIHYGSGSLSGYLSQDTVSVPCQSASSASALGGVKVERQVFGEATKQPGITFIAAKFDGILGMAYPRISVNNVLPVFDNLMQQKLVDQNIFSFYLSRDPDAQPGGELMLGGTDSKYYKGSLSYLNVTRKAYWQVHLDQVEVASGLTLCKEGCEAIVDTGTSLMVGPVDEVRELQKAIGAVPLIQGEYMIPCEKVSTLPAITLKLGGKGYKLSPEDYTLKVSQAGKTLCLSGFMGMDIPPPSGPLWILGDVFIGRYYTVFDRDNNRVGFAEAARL
Experimental: as §1, §2, §3

[3] = target: Insulin degrading enzyme, IDE (Homo sapiens, UniProt P14735); test: In vitro proteolytic stability against insulin degrading enzyme (Example 9); assay type: in vitro ADME; details: 37° C., 2 μM
Experimental: as §1, §2, §3

[4] = target: T3, insulin receptor isoform B (IR-B) (Homo sapiens, UniProt P06213); test: Insulin receptor autophosphorylation assay (In-Cell Western, CHO cells, Example 8B); assay type: cell-based; design: expressed in transfected cells; host or cells: CHO cells; details: relative to human insulin
T3 sequence (P06213 28-758 limits assumed): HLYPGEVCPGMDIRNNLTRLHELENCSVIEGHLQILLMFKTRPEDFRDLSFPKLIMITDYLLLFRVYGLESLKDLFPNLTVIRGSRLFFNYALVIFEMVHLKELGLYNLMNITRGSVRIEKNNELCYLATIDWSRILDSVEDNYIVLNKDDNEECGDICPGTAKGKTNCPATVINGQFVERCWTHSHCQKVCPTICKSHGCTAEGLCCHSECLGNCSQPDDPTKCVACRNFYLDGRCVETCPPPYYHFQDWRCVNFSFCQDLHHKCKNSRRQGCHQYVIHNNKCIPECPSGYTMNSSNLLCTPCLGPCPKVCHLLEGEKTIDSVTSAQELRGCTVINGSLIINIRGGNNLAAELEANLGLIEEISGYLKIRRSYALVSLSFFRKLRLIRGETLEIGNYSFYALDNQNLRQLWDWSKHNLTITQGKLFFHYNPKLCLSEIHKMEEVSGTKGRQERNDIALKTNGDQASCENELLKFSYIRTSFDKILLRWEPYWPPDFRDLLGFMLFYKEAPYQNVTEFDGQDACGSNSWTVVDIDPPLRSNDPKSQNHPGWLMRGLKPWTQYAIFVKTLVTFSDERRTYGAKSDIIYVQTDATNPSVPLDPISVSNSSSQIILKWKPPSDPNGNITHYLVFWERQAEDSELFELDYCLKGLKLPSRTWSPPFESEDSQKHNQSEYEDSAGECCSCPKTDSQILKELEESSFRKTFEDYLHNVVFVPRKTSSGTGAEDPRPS
T3 sequence (P06213 763-1382 limits assumed): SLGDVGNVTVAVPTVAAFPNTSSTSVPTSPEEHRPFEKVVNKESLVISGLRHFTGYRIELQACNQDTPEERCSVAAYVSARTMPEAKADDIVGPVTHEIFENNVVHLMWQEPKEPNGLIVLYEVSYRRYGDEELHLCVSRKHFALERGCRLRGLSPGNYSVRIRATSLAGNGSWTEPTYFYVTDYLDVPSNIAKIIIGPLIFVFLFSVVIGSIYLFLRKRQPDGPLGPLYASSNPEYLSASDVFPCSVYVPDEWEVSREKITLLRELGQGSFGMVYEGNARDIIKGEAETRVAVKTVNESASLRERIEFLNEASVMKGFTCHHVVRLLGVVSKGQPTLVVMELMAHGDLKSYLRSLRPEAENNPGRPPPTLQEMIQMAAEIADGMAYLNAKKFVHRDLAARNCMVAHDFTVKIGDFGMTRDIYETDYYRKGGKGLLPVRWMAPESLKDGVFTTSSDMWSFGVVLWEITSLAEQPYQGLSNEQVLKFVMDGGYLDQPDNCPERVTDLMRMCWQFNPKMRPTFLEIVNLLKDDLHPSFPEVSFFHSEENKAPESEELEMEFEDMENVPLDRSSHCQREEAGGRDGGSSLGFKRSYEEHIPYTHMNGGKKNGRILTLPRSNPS

[5] = target: T3, insulin receptor isoform B (IR-B); test: Insulin receptor binding affinity assay of insulin analogs (Example 8A, SPA competition binding); design: expressed in transfected cells; host or cells: CHO cells overexpressing the IR; isolated plasma membranes; details: relative to human insulin; a value of 0 means below the detection limit
Experimental: Methods for determining the binding affinity of an insulin analog to an insulin receptor are well known in the art. […] The insulin receptor can be present in a membrane of a cell, e.g. of CHO (Chinese Hamster Ovary) cell, which overexpresses a recombinant insulin receptor. In an embodiment, the insulin receptor binding affinity is determined as described in the Examples section.
Insulin receptor binding affinity for the analogs listed in Table 4 was determined as described in Hartmann et al. (Effect of the long-acting insulin analogs glargine and degludec on cardiomyocyte cell signaling and function. Cardiovasc Diabetol. 2016; 15:96). Isolation of insulin receptor embedded plasma membranes (M-IR) and competition binding experiments were performed as previously described (Sommerfeld et al., PLoS One. 2010; 5 (3): e9540). Briefly, CHO-cells overexpressing the IR were collected and re-suspended in ice-cold 2.25 STM buffer (2.25 M sucrose, 5 mM Tris-HCl pH 7.4, 5 mM MgCl2, complete protease inhibitor) and disrupted using a Dounce homogenizer followed by sonication. The homogenate was overlaid with 0.8 STM buffer (0.8 M sucrose, 5 mM Tris-HCl pH 7.4, 5 mM MgCl2, complete protease inhibitor) and ultra-centrifuged for 90 min at 100,000 g. Plasma membranes at the interface were collected and washed twice with phosphate buffered saline (PBS). The final pellet was re-suspended in dilution buffer (50 mM Tris-HCl pH 7.4, 5 mM MgCl2, complete protease inhibitor) and again homogenized with a Dounce homogenizer. Competition binding experiments were performed in a binding buffer (50 mM Tris-HCl, 150 mM NaCl, 0.1% BSA, complete protease inhibitor, adjusted to pH 7.8) in 96-well microplates. In each well 2 μg isolated membrane was incubated with 0.25 mg wheat germ agglutinin polyvinyltoluene polyethylenimine scintillation proximity assay (SPA) beads. […] The radioactivity was measured at equilibrium in a microplate scintillation counter (Wallac Microbeta, Freiburg, Germany).”

T1 sequence (P02768 25-609): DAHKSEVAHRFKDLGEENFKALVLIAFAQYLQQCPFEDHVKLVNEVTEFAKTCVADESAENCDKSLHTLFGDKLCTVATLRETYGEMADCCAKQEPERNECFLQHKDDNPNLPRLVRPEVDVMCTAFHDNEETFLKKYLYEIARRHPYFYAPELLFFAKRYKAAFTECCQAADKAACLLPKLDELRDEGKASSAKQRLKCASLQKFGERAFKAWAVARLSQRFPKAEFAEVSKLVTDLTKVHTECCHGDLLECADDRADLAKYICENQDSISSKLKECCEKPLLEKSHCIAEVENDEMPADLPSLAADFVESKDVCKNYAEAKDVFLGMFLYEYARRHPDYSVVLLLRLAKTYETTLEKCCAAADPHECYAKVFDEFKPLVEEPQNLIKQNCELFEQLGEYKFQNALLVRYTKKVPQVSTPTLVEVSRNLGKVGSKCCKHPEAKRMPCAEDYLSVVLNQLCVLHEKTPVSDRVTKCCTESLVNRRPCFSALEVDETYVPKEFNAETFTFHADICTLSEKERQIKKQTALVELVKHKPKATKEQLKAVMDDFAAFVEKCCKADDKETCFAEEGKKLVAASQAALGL

O=C(O)CCCCCCCCCc1ccc(OCc2ccc(S(=O)(=O)Nc3ccc(C(=O)NCCOCCOCC(=O)NCCOCCOCC(=O)O)cc3)cc2)cc1 [Binder 2] was tested, and the “NRT [min] (net retention time on columns with immobilized human serum albumin)” value (shortened to “NRT [min]”) [1] was 17.88 min, the “Percent remaining insulin analog, Gastric fluid (30 minutes)” value [2] was 0% and the “Percent remaining insulin analog, α-Chymotrypsin (120 minutes)” value (α-Chymotrypsin) was 35%. The “Percent remaining insulin analog, Cathepsin D (30 minutes)” value (Cathepsin D) was 0%, the “Percent remaining insulin analog, Insulin degrading enzyme, IDE (30 minutes)” value [3] was 81% and the autophosphorylation activity [4] was 0.87. For the same molecule, the Insulin-receptor binding affinity [5] was 1.05.
O=C(O)CCCCCCCCCCCCCCOc1ccc(S(=O)(=O)Nc2ccc(C(=O)NCCOCCOCC(=O)NCCOCCOCC(=O)O)cn2)cc1 [Binder 7] was tested, and the “NRT [min]” value [1] was 14.65 min, the “Percent remaining insulin analog, Gastric fluid (30 minutes)” value [2] was 30% and the “Percent remaining insulin analog, α-Chymotrypsin (120 minutes)” value (α-Chymotrypsin) was 58%. For the same molecule, the “Percent remaining insulin analog, Cathepsin D (30 minutes)” value (Cathepsin D) was 52%, the “Percent remaining insulin analog, Insulin degrading enzyme, IDE (30 minutes)” value [3] was 2% and the autophosphorylation activity [4] was 0.2. It also gave an Insulin-receptor binding affinity [5] of 0.05.
With O=C(O)CCCCCCCCCCCCCc1ccc(CCOc2ccc(S(=O)(=O)Nc3ncc(C(=O)NCCOCCOCC(=O)NCCOCCOCC(=O)O)cn3)cc2)cc1 [Binder 12] the “NRT [min]” value [1] was 14.95 min, the “Percent remaining insulin analog, Gastric fluid (30 minutes)” value [2] was 44% and the “Percent remaining insulin analog, α-Chymotrypsin (120 minutes)” value (α-Chymotrypsin) was 31%. The “Percent remaining insulin analog, Cathepsin D (30 minutes)” value (Cathepsin D) was 43%, the “Percent remaining insulin analog, Insulin degrading enzyme, IDE (30 minutes)” value [3] was 11% and the autophosphorylation activity [4] was 0.06. It also gave an Insulin-receptor binding affinity [5] of 0.01.
With O=C(O)CCCCCCCCCCCCCc1cc(Oc2ccc(S(=O)(=O)Nc3ccc(C(=O)NCCOCCOCC(=O)NCCOCCOCC(=O)O)cn3)cc2)ccc1F [Binder 22] the “NRT [min]” value [1] was 15.55 min, the “Percent remaining insulin analog, Gastric fluid (30 minutes)” value [2] was 52% and the “Percent remaining insulin analog, α-Chymotrypsin (120 minutes)” value (α-Chymotrypsin) was 99%. The “Percent remaining insulin analog, Cathepsin D (30 minutes)” value (Cathepsin D) was 20%, the “Percent remaining insulin analog, Insulin degrading enzyme, IDE (30 minutes)” value [3] was 77% and the autophosphorylation activity [4] was 0.04. It also gave an Insulin-receptor binding affinity [5] of 0.01.
For O=C(O)CCCCCCCCCCCc1cc(Oc2ccc(S(=O)(=O)Nc3ccc(C(=O)NCCOCCOCC(=O)NCCOCCOCC(=O)O)cn3)cc2)ccc1F [Binder 24], the “NRT [min]” value [1] was 15.76 min, the “Percent remaining insulin analog, Gastric fluid (30 minutes)” value [2] was 52% and the “Percent remaining insulin analog, α-Chymotrypsin (120 minutes)” value (α-Chymotrypsin) was 40%. The “Percent remaining insulin analog, Cathepsin D (30 minutes)” value (Cathepsin D) was 59%, the “Percent remaining insulin analog, Insulin degrading enzyme, IDE (30 minutes)” value [3] was 86% and the autophosphorylation activity [4] was 0.04. The Insulin-receptor binding affinity [5] was 0.01.
In the case of O=C(O)CCCCCCCCCCCCCCCOc1ccc(S(=O)(=O)Nc2ncc(C(=O)NCCOCCOCC(=O)NCCOCCOCC(=O)O)cn2)cc1F [Binder 38], the “NRT [min]” value [1] is reported as 13.53 min, the “Percent remaining insulin analog, Gastric fluid (30 minutes)” value [2] is reported as 36% and the “Percent remaining insulin analog, α-Chymotrypsin (120 minutes)” value (α-Chymotrypsin) is reported as 34%. For the same molecule, the “Percent remaining insulin analog, Cathepsin D (30 minutes)” value (Cathepsin D) was 62%, the “Percent remaining insulin analog, Insulin degrading enzyme, IDE (30 minutes)” value [3] was 86% and the autophosphorylation activity [4] was 0.03. For the same molecule, the Insulin-receptor binding affinity [5] was 0.

— patent publication US11098102B2, “Insulin conjugates” (SANOFI, priority 2018, dated 2021)
